Results on 3 substances are retold here after PMC11099015.

Like-named read-outs stand apart in the source and are kept apart here.

Experiment [1] deals with SETD3(1−498) (UniProt Q86TU7). The experiment can be described thus: BLI. Background: In BLI a coated tip is dipped into the sample, and binding shifts an interference pattern.
Experiment [2] addresses SETD3(1−498) (UniProt Q86TU7). As to the kind of experiment: AUC.

As to CVB3 2A C107A (enzyme), the Kd (in general, the free concentration of one partner at which half of the binding sites on the other are occupied at equilibrium, for simple one-to-one binding) with SETD3(1−498) [1] was 11.8 nM.
Take EV71 2A C110A (enzyme): the stoichiometry N (as a rule, the number of molecules, sites or subunits per partner or assembly) with SETD3(1−498) [2] stood at 1. In addition, the Kd in the experiment with SETD3(1−498) [1] amounted to 22.7 nM.
In the experiment with SETD3(1−498) [1] (2A KHY(70-72)AAA at 12.5, 6.25, 3.13, 1.56 and 0.78 µM), EV71 2A C110A K70A; H71A; Y72A showed a Kd of 1750 nM.
